From PMC4388654, “A Humanized Leucine Zipper-TRAIL Hybrid Induces Apoptosis of Tumors both In Vitro and In Vivo” (PLoS ONE, 2015)

Target: the molecule itself
Experiment: AUC; sedimentation equilibrium; 0.5, 0.17 and 0.06 mg/ml in PBS, 20°C, 18,000 rpm, 24 h; Monomer-Nmer model (HeteroAnalysis); monomer to trimer

B1: ATF7-pII leucine zipper-TRAIL (ligand, human)
chain: VSSIEKKIEEITSQIIQISNEITLIRNEIAQIKQKGSGQRVAAHITGTRGRSNTLSSPNSKNEKALGRKINSWESSRSGHSFLSNLHLRNGELVIHEKGFYYIYSQTYFRFQEEIKENTKNDKQMVQYIYKYTSYPDPILLMKSARNSCWSKDAEYGLYSIYQGGIFELKENDRIFVSVTNEHLIDMDHEASFFGAFLVG
notes: linker between the leucine zipper and TRAIL; Tumor necrosis factor-Related Apoptosis-Inducing Ligand (TRAIL), human, Gln120-Gly281; No tag is stated; the calculated trimer mass of 69.0 kDa fits zipper + linker + TRAIL 120-281 without a tag; also called ATF7-TRAIL; ATF7 leucine zipper-TRAIL; source: P. pastoris (pGAPZα), secreted, purified (Co2+-metal chelating chromatography, 0 to 25 mM imidazole …)
For B1, the “stoichiometry N” value was 3.
